Test results published in patent US20240409658A1 (Seagen, published 2024).
Changes are numbered by the printed parent chain. In names and notes the source's numbering stands. Read-outs that look alike come from different tables or passages of the source.

T1: human CD228 on the cell surface (RPMI-7951 cells stably expressing human CD228; A375 cells) (human) (UniProt P08582)
T1 sequence (looked up): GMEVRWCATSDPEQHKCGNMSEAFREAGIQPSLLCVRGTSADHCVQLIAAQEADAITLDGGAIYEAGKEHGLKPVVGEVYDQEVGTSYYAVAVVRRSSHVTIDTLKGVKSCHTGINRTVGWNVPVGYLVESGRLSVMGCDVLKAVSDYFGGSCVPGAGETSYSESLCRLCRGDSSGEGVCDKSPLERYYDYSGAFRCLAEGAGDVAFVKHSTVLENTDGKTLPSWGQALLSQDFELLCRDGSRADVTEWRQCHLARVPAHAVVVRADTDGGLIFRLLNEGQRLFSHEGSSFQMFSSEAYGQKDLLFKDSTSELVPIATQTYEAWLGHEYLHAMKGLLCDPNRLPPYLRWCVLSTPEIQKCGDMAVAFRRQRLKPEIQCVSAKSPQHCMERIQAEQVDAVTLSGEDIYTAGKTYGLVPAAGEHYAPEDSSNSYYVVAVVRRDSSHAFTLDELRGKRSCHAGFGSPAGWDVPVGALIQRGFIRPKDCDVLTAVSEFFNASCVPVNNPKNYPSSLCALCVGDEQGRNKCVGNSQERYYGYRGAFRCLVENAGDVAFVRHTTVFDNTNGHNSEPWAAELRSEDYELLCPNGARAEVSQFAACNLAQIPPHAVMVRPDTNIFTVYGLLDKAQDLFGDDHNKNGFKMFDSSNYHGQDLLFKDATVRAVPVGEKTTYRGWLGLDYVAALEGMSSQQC

T2: human CD228 on the cell surface (RPMI-7951 cells stably expressing human CD228; A375 cells) (human, UniProt P08582 20-709)
T2 construct: whole, on cells; also called p97; melanotransferrin
T2 sequence (looked up): T1 sequence (looked up)

B1: hL49ec HCLA (antibody, V domains shown)
VH: QVQLQESGPGLVKPSETLSLTCTVSGDSITSGYWNWIRQFPGKGLEYMGYISDSGITYYNPSLKSRITISRDTSKNQYSLKLSFVTAADTAVYNCARRTLATYYAMDYWGQGTLVTVSS
VL: DFVMTQSPLSLPVTLGQPASISCRASQSLVHSNGNTYLHWFQQRPGQSPRRLIYRVSNRFSGVPDRFSGSGSGTDFTLKISRVEAEDVGVYYCSQSTHVPPTFGQGTKLEIK
B2: hL49ec HCLB (antibody, V domains shown)
VH: B1 VH
VL: B1 VL with F41Y, R51L
B3: hL49 HALA G1 (antibody, V domains shown)
VH: B1 VH with F40P, M48I, I67V, F84S, N94Y
VL: B1 VL
notes: Humanized L49 with heavy chain HA and light chain LA; 'G1' (IgG1)
B4: hL49ec HBLA (antibody, V domains shown)
VH: B1 VH with F84S, N94Y
VL: B1 VL
B5: hL49ec HALA (antibody, V domains shown)
VH: B1 VH with F40P, M48I, I67V, F84S, N94Y
VL: B1 VL
notes: Same variable regions as m5 (hL49 HALA G1); The sheet prints 'ec', so it is kept apart from the G1 form; also called HALA in the 'ec' format
B6: hL49ec HBLB (antibody, V domains shown)
VH: B1 VH with F84S, N94Y
VL: B1 VL with F41Y, R51L
B7: hL49ec HALB (antibody, V domains shown)
VH: B1 VH with F40P, M48I, I67V, F84S, N94Y
VL: B1 VL with F41Y, R51L
notes: Same variable regions as m6 (hL49 HALB G1); The sheet prints 'ec', so it is kept apart from the G1 form; also called HALB in the 'ec' format
B8: hL49 HALB G1 (antibody, V domains shown)
VH: B1 VH with F40P, M48I, I67V, F84S, N94Y
VL: B1 VL with F41Y, R51L
notes: Humanized L49 with heavy chain HA and light chain LB; 'G1' (IgG1)
B9: cL49ec (chimeric L49 with an S239C mutation) (antibody, V domains shown)
VH: EVQLQESGPSLVKPSQTLSLTCSVTGDSITSGYWNWIRKFPGNKLEYMGYISDSGITYYNPSLKSRISITRDTSKNQYYLQLNFVTAEDTATYNCARRTLATYYAMDYWGQGTSVTVSS
VL: DFVMTQTPLSLPVSLGDQASISCRASQSLVHSNGNTYLHWYLQKPGQSPKLLIYRVSNRFSGVPDRFSGSGSGTDFTLKISRVEAEDLGVYFCSQSTHVPPTFGGGTKLEIK
notes: Human constant regions with S239C; also called chimeric LA9

What was measured:
[1] = target: T1, human CD228 on the cell surface (RPMI-7951 cells stably expressing human CD228; A375 cells) (human); test: competition flow cytometry, RPMI-7951 cells stably expressing human CD228; competitor 5 nM AF647-labeled mL49; unlabeled antibody 0.06-1000 nM
[2] = target: T2, human CD228 on the cell surface …; test: saturation binding by flow cytometry on RPMI-7951 cells stably expressing human CD228; apparent KD
Procedure: (§1) The KD for each resulting antibody was then determined by a saturation binding assay. Briefly, 1×10⁵ RPMI-7951 cells stably expressing human CD228 were aliquoted per well of a 96-well v-bottom plates. Each CD228 antibody was added in concentrations ranging from 0.05 pM to 340 nM and incubated on ice for 60 minutes. Cells were pelleted and washed 3× with PBS/BSA followed by addition of 10 ug/ml of a PE labeled anti-human IgG goat secondary antibody and incubated on ice for an additional 60 minutes. Cells were pelleted and washed 3× with PBS/BSA and resuspended in 125 μL of PBS/BSA. Fluorescence was analyzed by flow cytometry, using percent of saturated fluorescent signal to determine percent bound and to subsequently calculate apparent KD. The binding curves for recombinant human anti-CD228 antibodies are shown in FIG. 13 and the KD for cL49ec (chimeric LA9 with an S239C mutation in the […] constant region), hL49 HALA G1, hL49 HALB G1, and hL49 HALC G1 are shown in Table 8. The antibody called “HALC,” “hL49,” or “hL49-HALC” which comprises heavy chain “HA” and the light chain “LC” was selected for use in all other experiments.

[3] = target: T2, human CD228 on the cell surface …; test: saturation binding by flow cytometry, RPMI-7951 cells stably expressing human CD228; PE anti-human IgG secondary; row 'ug/mL' of the drawn table headed 'kD'
Procedure: as §1

[4] = target: T2, human CD228 on the cell surface …; test: competition flow cytometry, RPMI-7951 cells stably expressing human CD228; competitor 5 nM AF647-labeled mL49; unlabeled antibody 0.06-1000 nM
Procedure: (§2) Binding curves for each resulting antibody was determined by a competition binding assay. Briefly, 1×10⁵ RPMI-7951 cells stably expressing human CD228 were aliquoted per well of a 96-well v-bottom plates on ice. […] Cells were pelleted and washed 3 times with PBS/BSA. The cells were pelleted and resuspended in 125 μL of PBS/BSA. Fluorescence was analyzed by flow cytometry, using percent of saturated fluorescent signal to determine percent labeled murine CD228 mAb bound.

[5] = target: T2, human CD228 on the cell surface …; test: as above; remark: listed apart in the source
Procedure: as §2

[6] = target: T2, human CD228 on the cell surface …; test: as above; remark: listed apart in the source
Procedure: as §2

[7] = target: T2, human CD228 on the cell surface …; test: as above; remark: listed apart in the source
Procedure: as §2

Binder	IC50 (read off the curve) [1] [nM]	Kd [2] [nM]	Kd [3] [µg/mL]	IC50 (read off the curve) [5] [nM]	other results
B1	60				
B2	20				
B3		5.3	0.8		
B4	40				
B5				~40	IC50 (read off the curve) [4]: ~40 nM
B6	30				
B7				20 to 30	
B8		7.8	1.2		
B9		5.8	0.9	~30	IC50 (read off the curve) [4]: ~30 nM; IC50 (read off the curve) [6]: ~30 nM; IC50 (read off the curve) [7]: ~30 nM
